Source: publication PMC4823995

Biological target: Mcm6-SuOn (budding yeast) (UniProt Q02724)
Assay: co-IP

fold enrichment of Glc7 in the immunoprecipitate against Mcm6-ctrl: 2 fold
Substance: Glc7 phosphatase (PP1) (from UniProt P32598 1-312) (enzyme)
